US20200347144A1 (SHANGHAI HYAMAB BIOTECH, published 2020)
Positions count from the first letter of the chain named.

Tests used:
[1] = target: T1, monkey 4-1BB on CHOK1 cells (monkey); assay: FACS, CHOK1-c4-1BB cells; Ab 2 ug/ml
T1 construct: whole, on cells; also called CHOK1-c4-1BB
Text: (§1) The pIRES plasmid carrying the full-length gene of monkey-derived […] (the preparation method is the same as the preparation method of the pCpC vector carrying the human-derived IgG Fc fragment (hFc) in “Preparation of immunogen A” of the step (1) in Example 1, in which the database accession number of the amino acid sequence of the extracellular region of monkey 4-1BB protein (Phe19-Thr239) is G7PSE7) was transfected into CHOK1 cell line to obtain CHOK1 stable transfected cell line containing monkey 4-1BB (herein referred to as CHOK1-c4-1BB stable cell line). The CHOK1-h4-1BB stable cell line and the CHOK1-c4-1BB stable cell line were expanded and cultivated to 90% confluence in T-75 cell culture flasks. The medium was exhausted, and washed twice with HBSS buffer (Hanks Balanced Salt Solution, purchased from Invitrogen), and then the cells were treated and collected with enzyme-free cell dissociation solution (Versene solution, purchased from Life Technology). The cells were washed twice with HBSS buffer, and after cell counting, the cells were diluted with HBSS buffer to 2×10⁶ cells per ml, and 1% goat serum blocking solution was added, the percentage being the mass percentage. It was incubated on ice for 30 minutes, and then washed twice with HBSS buffer by centrifugation. The collected cells were suspended in FACS buffer (HBSS containing 1% BSA, the percentage was the mass percentage) to 2×10⁶ cells/mL, and 100 μl per well was added to a 96-well FACS reaction plate. The purified 4-1BB antibody test sample obtained in Example 2 was added, 100 microliters per well and incubated on ice for 2 hours. […] It was washed three times with FACS buffer by centrifugation, and 100 μl of fixative [4% (v/v) paraformaldehyde] per well was added to suspend cells, and washed twice with FACS buffer after 10 minutes by centrifugation. The cells were suspended with 100 microliters of FACS buffer, and the results were detected and analyzed with FACS (FACS Calibur, purchased from BD).

[2] = target: T1, monkey 4-1BB on CHOK1 cells; assay: FACS, CHOK1-c4-1BB cells; Ab 10 ug/ml
Text: as §1

[3] = target: T2, human 4-1BB, full length, on transfected cells (human, UniProt Q07011 24-255); assay: FACS, CHOK1-h4-1BB cells; Ab 0.016 ug/ml
T2 construct: whole, on cells; also called CHOK1-h4-1BB
Text: as §1

[4] = target: T1, monkey 4-1BB on CHOK1 cells; assay: FACS, CHOK1-c4-1BB cells; Ab 0.016 ug/ml
Text: as §1

[5] = target: T2, human 4-1BB, full length, on …; assay: FACS, CHOK1-h4-1BB cells; Ab 0.0032 ug/ml
Text: as §1

[6] = target: T1, monkey 4-1BB on CHOK1 cells; assay: FACS, CHOK1-c4-1BB cells; Ab 0.0032 ug/ml
Text: as §1

[7] = target: T2, human 4-1BB, full length, on …; assay: FACS, CHOK1-h4-1BB cells; Ab 0.00064 ug/ml
Text: as §1

[8] = target: T1, monkey 4-1BB on CHOK1 cells; assay: FACS, CHOK1-c4-1BB cells; Ab 0.00013 ug/ml
Text: as §1

[9] = target: T1, monkey 4-1BB on CHOK1 cells; assay: FACS, CHOK1-c4-1BB cells; Ab 0.00064 ug/ml
Text: as §1

[10] = target: T2, human 4-1BB, full length, on …; assay: FACS on CHOK1-h4-1BB cells, Alexa 488 secondary antibody, average fluorescence intensity
Text: as §1

[11] = target: T3, hFc-tagged human 4-1BB extracellular domain protein (4-1BB-hFc) (human, UniProt Q07011 24-186, limits assumed); assay: ELISA, coated human 4-1BB-hFc; Ab 2 ug/ml
T3 construct: also called immunogen A; 4-1BB^ECD-hFc; not shown: human IgG Fc fragment (hFc) of the pCpC vector
Method: (§2) The purified immunogen A (4-1BB-hFc), monkey 4-1BB-his, and mouse 4-1BB-his obtained in Example 1 [for the preparation method, see step 1 of Example 1, preparation of immunogen A], of which the extracellular domain of monkey-derived 4-1BB protein (purchased from ACRO biosystems), the extracellular domain of mouse 4-1BB protein (purchased from sino biological) or other immune detection point proteins respectively were diluted with PBS to a final concentration of 1.0 μg/mL, then added with […] per well to 96-well ELISA plate. It was sealed with plastic film and incubated at 4° C. overnight. The next day, the plate was washed twice with the plate-washing solution [PBS containing 0.01% (v/v) Tween20] and blocking solution [PBS containing 0.01% (v/v) Tween 20 and 1% (v/v) BSA] was added and blocked at room temperature for 2 hours. The blocking solution was discarded and 100 μl of the purified 4-1BB antibody obtained in Example 2 was added per well. After incubated at 37° C. for 2 hours, the plate was washed 3 times with a plate-washing solution [PBS containing 0.01% (v/v) Tween20]. A secondary antibody (purchased from Sigma) labeled with HRP (horseradish peroxidase) was added, and after incubated at 37° C. for 2 hours, the plate was washed 3 times with a plate-washing solution [PBS containing 0.01% (v/v) Tween20]. 100 μl of TMB substrate was added per well. After incubated for 30 minutes at room temperature, 100 μl of stop buffer (1.0N HCl) was added per well. The A450 nm values were read using an ELISA plate reader (SpectraMax 384plus, Molecular Device).

[12] = target: T3, hFc-tagged human 4-1BB extracellular …; assay: ELISA, coated human 4-1BB-hFc; Ab 0.4 ug/ml
Method: as §2

[13] = target: T3, hFc-tagged human 4-1BB extracellular …; assay: ELISA, coated human 4-1BB-hFc; Ab 0.0001 ug/ml
Method: as §2

[14] = target: T3, hFc-tagged human 4-1BB extracellular …; assay: ELISA, coated human 4-1BB-hFc; Ab 0.0006 ug/ml
Method: as §2

T2 sequence (Q07011 24-255): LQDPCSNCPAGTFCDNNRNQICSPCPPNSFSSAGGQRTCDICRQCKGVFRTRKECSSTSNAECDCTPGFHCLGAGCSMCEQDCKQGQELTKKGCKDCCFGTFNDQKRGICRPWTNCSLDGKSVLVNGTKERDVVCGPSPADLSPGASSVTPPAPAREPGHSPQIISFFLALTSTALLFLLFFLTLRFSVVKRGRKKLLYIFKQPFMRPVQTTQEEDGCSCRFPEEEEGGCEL

B1: 57B3D10 (antibody, V domains shown)
VH: QVQLQESGPGLVKPSETLSLTCTVSGGSISSYYWSWIRQPPGKGLEWIGYIYYSGSTNYNPSLKSRVTISVDTSKSQFSLKLTSVTAADTAVYYCAKDSDYYGSGSYSYWYFDLWGRGTLVTVSS
VL: EIVMTQSPATLSVSPGERATLSCRASQSVSSNLAWYQQKPGQAPRLLIYGASTRAPGIPARFSGSGSGTEFTLTISSLQSEDFAVYYCQQYNNWPLTFGGGTKVEIK
notes: also called 4-1BB fully human antibody 57B3D10
- average fluorescence intensity [1]: 567 MFI
- average fluorescence intensity [2]: 581 MFI
- average fluorescence intensity [3]: 148 MFI
- average fluorescence intensity [4]: 63.5 MFI
- average fluorescence intensity [5]: 42.7 MFI
- average fluorescence intensity [6]: 15 MFI
- average fluorescence intensity [7]: 12.5 MFI
- average fluorescence intensity [8]: 3.3 MFI
- average fluorescence intensity [9]: 5.6 MFI
- EC50 (read off the curve) [10]: ~0.05 µg/mL

B2: 113F6C6 (antibody, V domains shown)
VH: QVQLVESGGGVVQPGRSLRLSCAASGLTFSSYGMHWVRQAPGKGLEWVAVIWYDGSNKYYADSVKGRFTISRDNSKNTLYLQMNSLRAEDTAVYYCAREEVLWFGELSYNYYYGMDVWGQGTTVTVSS
VL: DIQMTQSPSSLSASVGDRVTITCRASQGISNYLAWYQQKPGKVPKLLIYAASTLQSGVPSRFSGSGSGTDFTLTISSLQPEDVATYYCQKYNSVPLTFGGGTKVEIK
notes: also called 4-1BB fully human antibody 113F6C6; 113F6F6
- average fluorescence intensity [1]: 438 MFI
- average fluorescence intensity [2]: 426 MFI
- average fluorescence intensity [3]: 46.2 MFI
- average fluorescence intensity [4]: 51.5 MFI
- average fluorescence intensity [5]: 13.7 MFI
- average fluorescence intensity [6]: 15.1 MFI
- average fluorescence intensity [7]: 4.8 MFI
- average fluorescence intensity [8]: 2.9 MFI
- average fluorescence intensity [9]: 5.5 MFI
- EC50 (read off the curve) [10]: ~0.1 µg/mL

B3: 52F4G2 (antibody, V domains shown)
VH: QVQLQESGPGLVKPSETLSLTCAVSGYSISSGYYWGWIRQPPGKGLEWIGSIFHSGSSYYNPSLKSRVTISVDTSKNQFSLKLRSVTAADTAVYYCARESSGWNCFDYWGQGTLVTVSS
VL: DIQMTQSPSTLSASVGDRVTITCRASQTISTWLAWYQQKPGKAPKLLIYKASNLESGVPSRFSGSGSGTEFTLTISSLQPDDFATYYCQQYNSYSITFGQGTRLEIK
- average fluorescence intensity [1]: 679 MFI
- average fluorescence intensity [2]: 736 MFI
- average fluorescence intensity [3]: 141 MFI
- average fluorescence intensity [4]: 41.2 MFI
- OD450 nm [11]: 3.1 OD450 nm
- average fluorescence intensity [5]: 38.3 MFI
- average fluorescence intensity [6]: 13.7 MFI
- average fluorescence intensity [7]: 11.7 MFI
- average fluorescence intensity [8]: 3.2 MFI
- average fluorescence intensity [9]: 4.5 MFI
- OD450 nm [12]: 3.09 OD450 nm
- OD450 nm [13]: 0.26 OD450 nm
- OD450 nm [14]: 0.34 OD450 nm
- EC50 (read off the curve) [10]: ~0.05 µg/mL

B4: 289B6G6 (antibody, V domains shown)
VH: QVQLQESGPGLVRPSETLSLTCAVSGYSISSGYYWGWIRQPPGKGLEWIGSIFHSGNTYYNPSLKSRVIVSGDTSKNQFSLKLSSVTAADTAVYYCTRESSGFNVFDIWGQGTMVTVSS
VL: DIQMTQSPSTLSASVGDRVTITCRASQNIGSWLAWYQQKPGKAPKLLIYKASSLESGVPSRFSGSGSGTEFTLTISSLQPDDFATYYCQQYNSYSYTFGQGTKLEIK
- average fluorescence intensity [1]: 597 MFI
- average fluorescence intensity [2]: 601 MFI
- average fluorescence intensity [3]: 101 MFI
- average fluorescence intensity [4]: 47.2 MFI
- OD450 nm [11]: 2.77 OD450 nm
- average fluorescence intensity [5]: 26.7 MFI
- average fluorescence intensity [6]: 14.1 MFI
- average fluorescence intensity [7]: 8.9 MFI
- average fluorescence intensity [8]: 3 MFI
- average fluorescence intensity [9]: 5.3 MFI
- OD450 nm [12]: 2.79 OD450 nm
- OD450 nm [13]: 0.07 OD450 nm
- OD450 nm [14]: 0.11 OD450 nm

B5: 118F3A2 (antibody, V domains shown)
VH: QVQLQQWGAGLLKPSETLSLTCGVYGGSFSTNYWSWIRQSPGKGLEWIGEINHSGNTEYNPSLKSRLTISIDTSKNQFSLKLTSVTAADTAVYYCARMGYHSPSFDFWGQGVLVTVSS
VL: KIVMTQSPATLSVSPGERATLPCRVSQGIGSNLAWYQQKPGQAPRLLIYGASTRATGVPARFSGSGSGSEFTLTISSLQSEDLALYYCQQYNNWPLTFGGGTKVEIK
- average fluorescence intensity [1]: 688 MFI
- average fluorescence intensity [2]: 735 MFI
- average fluorescence intensity [3]: 125 MFI
- average fluorescence intensity [4]: 41.2 MFI
- OD450 nm [11]: 2.72 OD450 nm
- average fluorescence intensity [5]: 34.4 MFI
- average fluorescence intensity [6]: 11.8 MFI
- average fluorescence intensity [7]: 10.8 MFI
- average fluorescence intensity [8]: 2.9 MFI
- average fluorescence intensity [9]: 4.9 MFI
- OD450 nm [12]: 2.73 OD450 nm
- OD450 nm [13]: 0.43 OD450 nm
- OD450 nm [14]: 0.44 OD450 nm
- EC50 (read off the curve) [10]: ~0.05 µg/mL

B6: 23G3B8 (antibody, V domains shown)
VH: B3 VH with G26A, S58N, T74P, R84S, A88V, W103Y
VL: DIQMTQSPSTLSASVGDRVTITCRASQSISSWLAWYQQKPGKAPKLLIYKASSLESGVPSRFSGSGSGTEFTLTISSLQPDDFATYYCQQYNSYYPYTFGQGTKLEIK
- average fluorescence intensity [1]: 586 MFI
- average fluorescence intensity [2]: 595 MFI
- average fluorescence intensity [3]: 126 MFI
- average fluorescence intensity [4]: 34.2 MFI
- OD450 nm [11]: 2.78 OD450 nm
- average fluorescence intensity [5]: 38.5 MFI
- average fluorescence intensity [6]: 10.8 MFI
- average fluorescence intensity [7]: 11.2 MFI
- average fluorescence intensity [8]: 3.4 MFI
- average fluorescence intensity [9]: 4.7 MFI
- OD450 nm [12]: 2.77 OD450 nm
- OD450 nm [13]: 0.07 OD450 nm
- OD450 nm [14]: 0.1 OD450 nm

B7: 119B6G5 (antibody, V domains shown)
VH: EVQLLESGGGLVQPGGSLRLSCAASGFTFSNYAMSWVRQGPGKGLEWVSTIIGSGDSTYYTDSVKGRFTISRDNSKNTLFLQMNSLRAEDTAVYYCARDKSGWYYFDYWGQGTLVTVSS
VL: DIQMTQSPSTLSASVGDRVTITCRASQSISNWLAWYQQKPGKAPKLLIYKASSLESGVPSRFSGSGSGTEFTLTISSLQPDDFATYYCQQYNDYFPITFGQGTRLEIK
- average fluorescence intensity [1]: 1350 MFI
- average fluorescence intensity [2]: 1470 MFI
- average fluorescence intensity [3]: 49.1 MFI
- average fluorescence intensity [4]: 77.9 MFI
- OD450 nm [11]: 2.76 OD450 nm
- average fluorescence intensity [5]: 17.8 MFI
- average fluorescence intensity [6]: 20.7 MFI
- average fluorescence intensity [7]: 5.1 MFI
- average fluorescence intensity [8]: 3.2 MFI
- average fluorescence intensity [9]: 6.6 MFI
- OD450 nm [12]: 2.77 OD450 nm
- OD450 nm [13]: 0.07 OD450 nm
- OD450 nm [14]: 0.11 OD450 nm
